Assay results from paper doi:10.1101/2020.01.24.918722.

Assays:
[1] = biological target: mNrxn1β^+SS4-FLAG (C-terminally FLAG-tagged mouse Nrxn1β containing the SS4 insert) (mouse) (UniProt P0DI97); experiment: saturation binding on cells with Scatchard analysis
[2] = biological target: mNrxn1β^−SS4-FLAG (C-terminally FLAG-tagged mouse Nrxn1β lacking the SS4 insert) (mouse); experiment: as above

Chain of mNrxn1β^+SS4-FLAG (C-terminally FLAG-tagged mouse Nrxn1β containing the SS4 insert) (mouse) (P0DI97 47-468): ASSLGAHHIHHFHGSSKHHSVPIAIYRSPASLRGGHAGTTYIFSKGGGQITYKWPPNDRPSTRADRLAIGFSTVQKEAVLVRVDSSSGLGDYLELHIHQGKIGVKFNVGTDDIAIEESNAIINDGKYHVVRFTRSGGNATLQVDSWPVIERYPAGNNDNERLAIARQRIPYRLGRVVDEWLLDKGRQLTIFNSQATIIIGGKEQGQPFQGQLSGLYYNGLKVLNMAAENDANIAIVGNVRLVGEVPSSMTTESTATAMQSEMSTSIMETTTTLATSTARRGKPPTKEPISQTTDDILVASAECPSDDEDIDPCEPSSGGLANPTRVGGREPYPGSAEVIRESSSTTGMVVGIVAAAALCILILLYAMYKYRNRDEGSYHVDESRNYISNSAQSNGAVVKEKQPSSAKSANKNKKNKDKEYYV

Ig-Clstn3 (Ig-fused calsyntenin-3) (from UniProt Q99JH7 20-956) (Fc fusion)
Kd [1]: 0.0514 µM
Kd [2]: 0.106 µM
